Target: the molecule itself
Assay: thioflavin-T fibrillization assay

B1: recombinant mouse prion protein residues 23-231 (recMoPrP(23–231)) (natural protein)
chain: not shown
notes: also called recPrP; rec full-length mouse (Mo) PrP
- binding result: binds
